# pKd: −log10 of the molar value.
# Biological target: GST-sPol_PR_(D25N) (Glutathione S-Transferase tagged HIV-1 Pol polyprotein with a catalytically dead protease) (HIV-1)
# Experiment: AlphaScreen or HTRF; titration: GST-sPol_PR_(D25N) constant at 20 nM, WT or D366N Flag-LEDGF/p75 titrated from 50 nM downward (1:2.5 series); glutathione donor and anti-Flag acceptor beads; 25 mM Tris/HCl pH 7.5, 150 mM NaCl, 1 mM DTT, 1 mM MgCl2, 0.1% BSA, 0.1% Tween 20; 1 h at 4°C, then 1 h at 23°C with beads; apparent
substance,measurement,value
Flag-LEDGF/p75 WT (lens epithelium-derived growth factor p75) (from UniProt O75475 1-530) (natural protein),pKd,8.51

# Source: paper PMC4357141
